The results in this text go back to patent US20190085081A1 (CANCER RESEARCH TECHNOLOGY, published 2019).

First the molecules themselves.
T1: MMRN2 overexpressed in HEK293T cells (human, UniProt Q9H8L6 23-949)
T1 construct: Used as cell lysate; also called full-length human MMRN2 with a His tag; hMMRN2; not shown: His tag (vector pHL-Avitag3)
T1 sequence: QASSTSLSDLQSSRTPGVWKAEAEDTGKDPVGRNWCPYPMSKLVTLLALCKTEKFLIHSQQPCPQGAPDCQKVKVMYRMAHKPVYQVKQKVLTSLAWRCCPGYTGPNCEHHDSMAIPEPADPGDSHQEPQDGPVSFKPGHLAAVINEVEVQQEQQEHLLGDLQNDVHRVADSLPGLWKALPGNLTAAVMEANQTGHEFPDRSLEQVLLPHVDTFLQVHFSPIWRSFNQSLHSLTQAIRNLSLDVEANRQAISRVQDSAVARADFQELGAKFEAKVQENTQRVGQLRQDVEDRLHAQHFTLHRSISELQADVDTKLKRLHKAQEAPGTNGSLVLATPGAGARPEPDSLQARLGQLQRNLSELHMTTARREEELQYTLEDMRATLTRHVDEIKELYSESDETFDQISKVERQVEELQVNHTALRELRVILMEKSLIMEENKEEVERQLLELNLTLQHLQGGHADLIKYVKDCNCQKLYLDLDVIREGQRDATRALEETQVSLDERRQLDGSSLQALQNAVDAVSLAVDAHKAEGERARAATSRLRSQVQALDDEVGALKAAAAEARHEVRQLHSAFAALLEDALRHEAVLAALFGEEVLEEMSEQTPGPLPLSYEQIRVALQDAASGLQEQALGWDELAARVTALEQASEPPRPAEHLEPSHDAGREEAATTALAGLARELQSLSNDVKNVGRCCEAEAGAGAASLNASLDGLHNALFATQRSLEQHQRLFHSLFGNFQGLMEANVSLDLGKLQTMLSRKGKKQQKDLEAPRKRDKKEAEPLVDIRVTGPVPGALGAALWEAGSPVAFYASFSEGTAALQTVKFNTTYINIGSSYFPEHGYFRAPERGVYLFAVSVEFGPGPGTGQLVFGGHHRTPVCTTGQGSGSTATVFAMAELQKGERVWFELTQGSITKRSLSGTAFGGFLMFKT

T2: murine CLEC14A-Fc (mouse, UniProt Q8VCP9 22-386, limits assumed)
T2 construct: Murine CLEC14A protein with a human Fc tag, made in HEK293T cells; also called CM; mCLEC14A-Fc; not shown: human Fc tag
T2 sequence (looked up): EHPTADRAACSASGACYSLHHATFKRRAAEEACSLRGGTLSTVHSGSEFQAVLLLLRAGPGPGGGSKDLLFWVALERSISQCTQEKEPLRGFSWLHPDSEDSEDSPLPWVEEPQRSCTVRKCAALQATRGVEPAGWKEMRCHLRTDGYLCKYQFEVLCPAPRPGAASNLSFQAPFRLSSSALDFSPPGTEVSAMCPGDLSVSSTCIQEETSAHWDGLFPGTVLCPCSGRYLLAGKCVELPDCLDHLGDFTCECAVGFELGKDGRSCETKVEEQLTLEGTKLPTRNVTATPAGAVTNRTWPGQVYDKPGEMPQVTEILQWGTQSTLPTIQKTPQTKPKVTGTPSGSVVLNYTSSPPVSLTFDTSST

T3: human CLEC14A-ECD-Fc (human, UniProt Q86T13 22-396)
T3 construct: also called CLEC14A-Fc; hCLEC14A-Fc; not shown: human Fc tag from the pcDNA3-Fc plasmid
T3 sequence: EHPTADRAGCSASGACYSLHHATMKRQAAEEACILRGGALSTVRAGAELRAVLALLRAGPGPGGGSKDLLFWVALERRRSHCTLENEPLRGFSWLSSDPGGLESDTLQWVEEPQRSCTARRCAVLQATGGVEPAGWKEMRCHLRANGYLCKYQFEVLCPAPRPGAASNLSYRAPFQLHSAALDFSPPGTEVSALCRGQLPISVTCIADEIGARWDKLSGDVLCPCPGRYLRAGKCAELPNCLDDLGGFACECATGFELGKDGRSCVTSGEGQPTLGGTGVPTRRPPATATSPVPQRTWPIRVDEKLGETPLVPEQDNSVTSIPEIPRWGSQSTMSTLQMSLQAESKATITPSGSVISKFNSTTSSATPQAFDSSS

T4: human CLEC14A, full length (human, UniProt Q86T13 22-490)
T4 construct: also called CLEC14A on HUVECs (endogenous); CHO cells expressing full length human CLEC14A
T4 sequence: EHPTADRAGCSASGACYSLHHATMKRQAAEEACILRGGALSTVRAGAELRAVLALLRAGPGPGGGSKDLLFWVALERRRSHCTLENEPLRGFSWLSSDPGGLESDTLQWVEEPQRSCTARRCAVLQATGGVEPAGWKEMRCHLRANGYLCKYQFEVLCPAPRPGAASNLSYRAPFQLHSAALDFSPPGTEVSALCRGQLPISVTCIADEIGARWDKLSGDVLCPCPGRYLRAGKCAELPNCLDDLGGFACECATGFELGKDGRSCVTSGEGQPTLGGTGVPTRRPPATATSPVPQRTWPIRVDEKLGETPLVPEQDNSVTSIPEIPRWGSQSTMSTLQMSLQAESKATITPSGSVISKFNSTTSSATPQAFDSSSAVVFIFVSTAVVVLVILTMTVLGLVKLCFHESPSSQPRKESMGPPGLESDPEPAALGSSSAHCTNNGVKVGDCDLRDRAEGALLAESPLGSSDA

T5: CLEC14A wild type with a C terminal GFP tag (human, UniProt Q86T13 22-490)
T5 construct: Expressed in HEK293T cells; GFP-positive cells gated; also called WT CLEC14A; not shown: C-terminal GFP tag
T5 sequence: T4 sequence

B1: HA-CLEC14A (receptor)
chain: T4 sequence
notes: also called CLEC14A wild type (WT) with an N-terminal HA tag; not shown: N-terminal HA tag
B2: CRT3 (antibody, IgG1, V domains shown)
VH: EVQLQQSGTVLARPGASVKMSCKASGYTFTSYWMHWVKQRPGQGLEWIGAIYPGNSDTSYNQKFKGKAKLTAVTSTSTAYMELSSLTNEDSAVFYCTHYYGSDYAMDYWGQGTSVTV
VL: QIVLTQSPAIMSASLGERVTMTCTASSSVSSSYLHWYQQKPGSSPKLWIYSTSNLASGVPARFSGSGSGTSYSLTISSMEAEDAATYYCHQYHRSPRTFGGGTKLEIKR
notes: The VL entry ends with AAA from the cloning site; also called C3
B3: CLEC14A with regions 97-108 of CD141 (receptor)
chain: not shown
notes: also called this mutant
B4: CRT1 (antibody, IgG1, V domains shown)
VH: EVQLQQSGAELMKPGASVKISCKATGYTFSSYWIEWVKQRPGHGLEWIGEILPGSGSTNYNEKFKGKATFTADTSSNTAYMQLSSLTSEDSAVYYCARGGDYDEEYYVMDYWGQGTSVTV
VL: QIVLTQSPAIMSASPGEKVTMTCSASSSVSYMYWYQQKPGSSPRLLIYDTSNLASGVPVRFSGSGSGTSYSLTISRMEAEDAATYYCQQWSSYPLTFGAGTKLELKR
notes: also called C1; CR1
B5: CRT4 (antibody, IgG1, V domains shown)
VH: QVQLQQSGAELMKPGASVKISCKATGYTFSSYWIEWVNRRPGHGLEWIGEILPGSGSTNYNEKFKGKATFTADTSSNTAYMQLSSLTSEDSAVYYCARGGDYDEEYYLMDYWGQGTTLTVSS
VL: B4 VL with L105I
notes: also called C4
B6: CRT5 (antibody, IgG1, V domains shown)
VH: AEVQLQQSGAELMKPGASVKISCKATGYTFSSYWIEWVNQRPGHGLEWIGEILPGSGSTNYNEKFKGKATFTADTSSNTAYMQLSSLTSEDSAVYYCARGGDYDEEYYAMDYWGQGTSVTL
VL: B4 VL with A82G
notes: also called C5

Assay [1] concerns the target T1, MMRN2 overexpressed in HEK293T cells. The experiment in a line: far Western blot of lysates of transfected HEK293T cells, probed with MMRN2 protein lysate. From the text: HEK293T cells were mock transfected or transfected with pCS2 vectors containing CLEC14A wild type (WT) or constructs with each major domain deleted (Δ) with an N-terminal HA tag. Upon far western blotting with MMRN2 protein lysate, binding can be seen in all mutants except those missing the C-type lectin domain (CTLD) or the sushi domain. An anti-HA blot was included to show all mutant proteins were expressed.

The target in assay [2] is T2, murine CLEC14A-Fc. The experiment in a line: ELISA, hybridoma supernatant on absorbed antigen. In general terms: In an ELISA, binding on a coated surface is turned into a signal by an enzyme label.
Assay [3] concerns the target T3, human CLEC14A-ECD-Fc. The experiment in a line: pre-incubation of CLEC14A-ECD-Fc with antibody before MMRN2 pull-down. The procedure:
Human CLEC14A-ECD-Fc was bound to protein A beads, blocked in 20% FCS and then incubated with each blocking condition. This was then added to lysates of HEK293T cells overexpressing full-length human MMRN2 with a His tag. Pre-incubating with CRT1, CRT4 and CRT5 decreased the levels of MMRN2 pulled down by CLEC14A-ECD-Fc.
To determine which CLEC14A monoclonal antibodies could inhibit the binding of MMRN2 to CLEC14A, CLEC14A-ECD-Fc was pre-incubated with increasing concentrations of mIgG1, or CR1-5, prior to incubation with lysates from HEK293T cells overexpressing MMRN2. Precipitates were then separated and probed for MMRN2 or CLEC14A-ECD-Fc. […] This confirms that antibodies C1, 4 and 5 bind CLEC14a on an epitope that is distinct from the one that C2 and 3 monoclonal antibodies bind and thus specifically block the MMRN2 interaction with CLEC14A.

The target of assay [4] is T6, Chimera 5.
T6 construct: GFP fusion; also called CLEC14A with CTLD of CD141; CTLD of thrombomodulin, rest CLEC14A
T6 sequence (chain, as listed by the source mutant limits assumed): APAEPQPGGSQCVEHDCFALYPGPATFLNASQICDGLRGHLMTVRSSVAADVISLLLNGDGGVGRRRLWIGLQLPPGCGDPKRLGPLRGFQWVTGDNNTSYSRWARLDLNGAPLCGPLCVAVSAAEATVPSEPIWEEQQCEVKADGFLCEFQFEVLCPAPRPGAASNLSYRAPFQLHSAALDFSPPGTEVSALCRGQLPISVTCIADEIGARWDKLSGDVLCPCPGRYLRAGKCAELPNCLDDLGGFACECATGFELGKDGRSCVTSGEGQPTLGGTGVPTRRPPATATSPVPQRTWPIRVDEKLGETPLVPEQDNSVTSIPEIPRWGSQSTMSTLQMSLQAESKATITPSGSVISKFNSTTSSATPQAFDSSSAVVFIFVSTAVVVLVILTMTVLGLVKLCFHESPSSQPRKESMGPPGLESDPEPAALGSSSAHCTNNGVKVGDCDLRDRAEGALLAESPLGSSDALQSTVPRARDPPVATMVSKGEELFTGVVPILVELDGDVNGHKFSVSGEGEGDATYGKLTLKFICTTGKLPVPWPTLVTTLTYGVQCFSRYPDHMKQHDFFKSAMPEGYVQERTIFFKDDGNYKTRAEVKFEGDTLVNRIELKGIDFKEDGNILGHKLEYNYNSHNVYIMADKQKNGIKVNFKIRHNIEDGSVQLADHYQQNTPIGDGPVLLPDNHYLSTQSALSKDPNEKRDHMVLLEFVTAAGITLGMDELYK
The experiment in a line: flow cytometry, HEK293T Chimera 5 GFP, GFP-positive cells gated (R1). For orientation: In flow cytometry, cells or beads pass a laser one at a time.

Assay [5] addresses T7, wild type thrombomodulin with GFP tag (UniProt P07204 19-575).
T7 construct: whole, on cells; Expressed in HEK293T cells; also called WT CD141; CD141; not shown: C-terminal GFP tag
Nature of the assay: flow cytometry, HEK293T Thrombomodulin CD141 WT GFP, GFP-positive cells gated (R1).

The target of assay [6] is T4, human CLEC14A, full length. The experiment in a line: fluorescent imaging of HUVECs treated with the drug conjugate of CRT3, 0 and 90 minutes by the legend. The procedure:
HUVECs were treated with CRT-3 ADC and fluorescent imaging was carried out to determine the localisation of CRT-3 after 0 and 90 minutes. Further, the cytotoxicity was measured using a Cell Titre Glo luminescent cell viability assay and the results are shown in FIG. 18B. As described above, 1 million Lewis lung carcinoma cells were injected subcutaneously into the right flank of 2 mice and allowed to grow to a visible size. 1 mg/kg of CRT-3-ADC or B12-ADC (control) was administered through tail vein injections.

For assay [7], the target named is T5, CLEC14A wild type with a C terminal GFP …. Nature of the assay: flow cytometry, HEK293T CLEC14A WT GFP, GFP-positive cells gated (R1); filled histogram is the control (files named IgG).
The target of assay [8] is T8, Chimera 6.
T8 construct: GFP fusion; also called CLEC14A with SUSHI of CD141; Sushi of thrombomodulin
Nature of the assay: flow cytometry, HEK293T Chimera 6 GFP, GFP-positive cells gated (R1); filled histogram is the control (files named IgG).

Assay [9] deals with T1, MMRN2 overexpressed in HEK293T cells. The experiment in a line: method for MMRN2 not described.
Assay [10] addresses B3. The experiment in a line: flow cytometry, HEK293T 97-108 Chimera GFP, GFP-positive cells gated (R1).

Changes are numbered by the printed parent chain.

T7 sequence (P07204 19-575): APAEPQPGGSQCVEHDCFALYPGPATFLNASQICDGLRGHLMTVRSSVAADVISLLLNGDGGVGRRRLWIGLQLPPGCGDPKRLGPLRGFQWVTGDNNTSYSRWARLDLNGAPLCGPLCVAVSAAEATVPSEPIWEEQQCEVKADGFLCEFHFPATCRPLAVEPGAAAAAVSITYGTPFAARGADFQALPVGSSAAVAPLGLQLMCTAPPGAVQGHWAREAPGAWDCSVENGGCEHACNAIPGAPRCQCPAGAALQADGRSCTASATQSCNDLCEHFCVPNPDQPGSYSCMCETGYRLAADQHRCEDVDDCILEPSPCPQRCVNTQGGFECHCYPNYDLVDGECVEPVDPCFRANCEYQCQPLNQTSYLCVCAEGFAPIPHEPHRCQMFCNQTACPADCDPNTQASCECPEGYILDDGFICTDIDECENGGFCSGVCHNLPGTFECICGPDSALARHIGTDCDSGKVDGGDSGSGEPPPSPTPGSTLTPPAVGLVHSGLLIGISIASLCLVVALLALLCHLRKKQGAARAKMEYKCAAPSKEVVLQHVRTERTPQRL

Turning to B1, the binding result in [1] was “binds”.
Regarding B2, the binding result in [2] is “binds”; in assay [3], “binds”; in assay [4] it was “no binding”; in assay [5], “no binding”; in [6] it was “binds”; in assay [7] it was “binds”. In addition, the binding result in [8] was “binds”.
With B3, the binding result in assay [9] is “no binding”.
Regarding B4, the binding result in assay [2] is recorded as “binds”; in assay [3], “binds”; in [4], “no binding”; in assay [10], “no binding”; in assay [5], “no binding”; in assay [7], “binds”. Also, the binding result in [8] is recorded as “binds”.
Take B5: the binding result in assay [4], in [10] and in assay [5] was “no binding” each time.
As for B6, the binding result in assay [4], in assay [10] and in [5] was “no binding” in each case.
